This is an account of results in US20180111972A1 (Stanford University, published 2018).

Assay [1] deals with T1, VEGFR2-His (residues 1-764 of VEGFR2, Ig-like domains 1-7, with hexahistidine tag) (human, UniProt P35968 20-764).
T1 construct: range 1-764; Monomeric form, expressed in FreeStyle 293-F cells; also called VEGFR-His
The experiment in a line: yeast surface display titration, flow cytometry. (In general: In flow cytometry, cells or beads pass a laser one at a time.)

The target in assay [2] is T2, PDGFRβ-His (residues 1-314 of PDGFR-β with C-terminal hexahistidine tag) (human, UniProt P09619 33-314).
T2 construct: range 1-314; Monovalent form, expressed in FreeStyle 293-F cells; also called PDGRβ-His; PDGFR-His
Nature of the assay: yeast surface display titration, flow cytometry.

In assay [3] the target is T1, VEGFR2-His (residues 1-764 of VEGFR2, …). The experiment in a line: yeast surface display titration, flow cytometry. How it is done: (§1) Cells were incubated in large enough volumes to avoid ligand depletion and appropriate time to reach equilibrium. During the last hour of incubation, yeast were incubated with 1:250 dilution of chicken anti-c-Myc (Invitrogen) in PBSA. […] Yeast were washed, pelleted, and resuspended in PBSA immediately before analysis by flow cytometry using BD FACSCalibur or BD Accuri C6. Flow cytometry data were analyzed using FlowJo (v7.6.1 and v10, Treestar) or BD Accuri C6 software. Statistical analysis was performed using GraphPad Prism 6.
The source holds these as a separate data set.

Assay [4] addresses T2, PDGFRβ-His (residues 1-314 of PDGFR-β …). The experiment in a line: yeast surface display titration, flow cytometry. How it is done: as §1
The source holds these as a separate data set.

For assay [5], the target named is T1, VEGFR2-His (residues 1-764 of VEGFR2, …). Nature of the assay: yeast surface display, flow cytometry equilibrium titration of VEGFR2-His, normalized fluorescence. How it is done:
as §1

Assay [6] concerns the target T2, PDGFRβ-His (residues 1-314 of PDGFR-β …). Nature of the assay: yeast surface display, flow cytometry equilibrium titration of PDGFRβ-His (panel 'PDGFR-His'), normalized fluorescence. How it is done: as §1
Assay [7] addresses T3, soluble VEGFR2 (Fc or His format not stated for the experiment) (human, UniProt P35968 20-764).
T3 construct: extracellular domain
Nature of the assay: binding titration (FIG. 12); taken as yeast display, receptor format not stated; to VEGFR; receptor format not stated.

The target of assay [8] is T1, VEGFR2-His (residues 1-764 of VEGFR2, …). Nature of the assay: yeast surface display titration, flow cytometry. The source holds these as a separate data set.
Assay [9] deals with T2, PDGFRβ-His (residues 1-314 of PDGFR-β …). The experiment in a line: yeast surface display titration, flow cytometry. The source holds these as a separate data set.
The target is the same in assay [10]. The experiment in a line: yeast surface display, flow cytometry titration of PDGFRβ-His (panel 'PDGFRβ binding'). How it is done:
as §1

In assay [11] the target is T4, soluble PDGFRβ (Fc or His format not stated for the experiment) (human, UniProt P09619 33-532).
T4 construct: extracellular domain
Nature of the assay: yeast surface display, flow cytometry titration of soluble receptor; panel 'PDGFR binding', Fc or His form not given.

Assay [12] deals with T4, soluble PDGFRβ (Fc or His format not …). Nature of the assay: binding titration (FIG. 12); taken as yeast display, receptor format not stated; to PDGFR; receptor format not stated.

Like-named read-outs stand apart in the source and are kept apart here.

T1 sequence (P35968 other isoform, or with tags, fused parts or gaps limits assumed, form in doubt): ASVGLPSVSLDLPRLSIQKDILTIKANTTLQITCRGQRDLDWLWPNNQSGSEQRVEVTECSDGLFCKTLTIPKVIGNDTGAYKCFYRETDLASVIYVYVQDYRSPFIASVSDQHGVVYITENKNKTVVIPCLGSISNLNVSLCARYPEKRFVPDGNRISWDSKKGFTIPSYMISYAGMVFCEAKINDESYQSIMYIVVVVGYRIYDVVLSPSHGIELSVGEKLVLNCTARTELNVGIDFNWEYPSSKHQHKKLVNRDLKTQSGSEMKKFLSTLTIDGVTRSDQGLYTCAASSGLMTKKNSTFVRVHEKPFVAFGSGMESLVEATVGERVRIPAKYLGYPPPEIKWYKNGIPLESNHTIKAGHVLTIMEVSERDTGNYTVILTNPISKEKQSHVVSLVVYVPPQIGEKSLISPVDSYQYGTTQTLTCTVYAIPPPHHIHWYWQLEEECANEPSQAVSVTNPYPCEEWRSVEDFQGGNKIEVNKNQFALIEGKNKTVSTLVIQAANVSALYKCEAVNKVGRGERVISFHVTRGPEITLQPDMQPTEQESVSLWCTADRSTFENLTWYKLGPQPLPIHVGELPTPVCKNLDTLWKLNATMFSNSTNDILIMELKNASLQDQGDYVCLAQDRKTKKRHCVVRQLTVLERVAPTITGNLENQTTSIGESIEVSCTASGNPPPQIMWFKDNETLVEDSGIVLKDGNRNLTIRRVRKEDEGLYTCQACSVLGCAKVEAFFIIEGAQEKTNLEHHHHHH
T2 sequence (P09619 other isoform, or with tags, fused parts or gaps limits assumed, form in doubt): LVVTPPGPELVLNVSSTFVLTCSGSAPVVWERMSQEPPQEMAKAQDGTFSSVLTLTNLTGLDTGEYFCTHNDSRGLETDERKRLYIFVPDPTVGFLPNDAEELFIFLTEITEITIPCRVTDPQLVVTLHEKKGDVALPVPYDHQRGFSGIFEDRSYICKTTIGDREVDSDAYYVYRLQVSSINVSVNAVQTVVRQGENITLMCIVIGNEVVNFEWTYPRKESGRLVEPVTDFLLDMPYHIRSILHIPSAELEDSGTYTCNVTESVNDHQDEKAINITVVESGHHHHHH
T4 sequence (P09619 33-532): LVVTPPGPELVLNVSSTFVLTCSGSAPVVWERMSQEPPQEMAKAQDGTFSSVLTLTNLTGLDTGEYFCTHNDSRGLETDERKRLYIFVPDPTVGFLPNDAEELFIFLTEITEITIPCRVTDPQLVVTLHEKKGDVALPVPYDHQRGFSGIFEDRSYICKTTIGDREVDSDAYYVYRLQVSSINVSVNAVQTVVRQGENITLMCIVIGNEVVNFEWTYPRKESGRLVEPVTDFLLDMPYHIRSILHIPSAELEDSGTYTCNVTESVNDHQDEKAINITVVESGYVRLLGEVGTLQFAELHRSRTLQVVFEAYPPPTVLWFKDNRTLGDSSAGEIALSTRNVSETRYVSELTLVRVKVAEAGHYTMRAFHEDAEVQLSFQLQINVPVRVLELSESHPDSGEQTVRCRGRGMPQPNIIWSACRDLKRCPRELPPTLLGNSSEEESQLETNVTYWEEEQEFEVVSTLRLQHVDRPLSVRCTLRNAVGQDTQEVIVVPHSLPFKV
T3 sequence (P35968 20-764): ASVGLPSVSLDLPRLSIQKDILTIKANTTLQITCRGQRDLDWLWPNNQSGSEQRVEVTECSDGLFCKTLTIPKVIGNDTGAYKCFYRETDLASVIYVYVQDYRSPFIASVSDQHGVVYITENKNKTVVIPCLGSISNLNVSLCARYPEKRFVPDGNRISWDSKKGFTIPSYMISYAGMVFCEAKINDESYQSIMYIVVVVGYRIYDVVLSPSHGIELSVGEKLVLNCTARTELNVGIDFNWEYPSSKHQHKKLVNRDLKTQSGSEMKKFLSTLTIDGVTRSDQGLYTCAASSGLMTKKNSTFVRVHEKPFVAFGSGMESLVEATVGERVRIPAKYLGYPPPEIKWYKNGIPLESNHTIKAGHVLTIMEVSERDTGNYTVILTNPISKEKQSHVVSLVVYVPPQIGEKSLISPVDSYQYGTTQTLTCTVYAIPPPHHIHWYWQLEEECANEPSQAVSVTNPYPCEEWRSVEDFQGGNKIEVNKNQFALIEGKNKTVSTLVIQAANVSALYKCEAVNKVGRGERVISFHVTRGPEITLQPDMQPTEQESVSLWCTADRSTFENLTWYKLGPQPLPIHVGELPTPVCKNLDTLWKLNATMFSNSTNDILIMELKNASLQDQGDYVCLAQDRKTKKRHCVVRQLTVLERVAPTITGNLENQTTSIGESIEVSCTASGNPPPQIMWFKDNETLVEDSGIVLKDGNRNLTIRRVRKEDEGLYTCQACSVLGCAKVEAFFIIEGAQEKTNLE

B1: PVAM (4-22 RF), yeast-displayed (designed binder)
chain: IAEPAMIAECHPIETLVDILQEYPDEIGYIFKPSCVPLMRCGGCCNNRNVQCRPTEESNITMQIMRIKPHRGQHIGEMSFLQHNKCRCETVAAGSTSGSGKSSEGKGEVVKFMDVYQRSYCKTRTEVFEISRRLIDRTNANFLVWPPCVEVQRCSGCCNHEGLECVPTQVQLRPVQVRKIEFVRKKPIFKKATVTLEDHLACECRPKKD
notes: Combines K87R and I182F with F20L, E28G, Q71R and D160H
Regarding B1, the “fold improvement compared to PV6” value amounted to 200 fold in assay [1] and 1100 fold in [2]. Further, the Kd (as a rule, the free concentration of one partner at which half of the binding sites on the other are occupied at equilibrium, for simple one-to-one binding) was found to be 1.1 nM in [3]; 0.39 nM in [4]; 2.1 nM in assay [7]; 1.1 nM in [8]; 0.39 nM in assay [9]; 0.21 nM in assay [12]. For the same molecule, the EC50 (read off the curve) (commonly the concentration that produces a half-maximal response) in [5] was around 1 nM; in assay [6], around 0.4 nM; in [10], around 0.3 nM; in [11], around 0.2 nM.
